In publication PMC11809415, “Structure of the F-tractin–F-actin complex” (The Journal of Cell Biology, 2025):

B1: F-tractinopt–mCherry fusion [rat] / F-actin (rabbit skeletal muscle α-actin filaments) [rabbit] (parent)
chain 1: APRRSVGELRLLFEARAASAA
chain 2: not shown

Variants of: B1
Experiment: high-speed cosedimentation assay (SDS-PAGE densitometry)
Conditions: with F-actin (rabbit skeletal muscle α-actin filaments) [rabbit]; 2 µM F-tractin-mCherry; high-speed sedimentation, 120,000 g; actin 0-40 µM

Row | Variant | Kd [µM]
1 | chain 1 F13A | > 100
